Data on two molecules can be found in article PMC10866546, “Pseudomonas effector AvrB is a glycosyltransferase that rhamnosylates plant guardee protein RIN4” (Science Advances, 2024).

For the assay, the target named is T1, AvrB (WT), C-terminal 6xHis tag (P. syringae, UniProt P13835 1-321).
T1 construct: AvrB, type III secretion system effector of Pseudomonas syringae; cDNA in pET-29b; source: E. coli BL21 (DE3), purified (Ni2+-NTA)
Put plainly: pull-down; GST-tagged bait (10 μg) and prey (10 μg) with 10 μl glutathione agarose resin in 500 μl of 25 mM Hepes pH 7.4, 150 mM NaCl, 1 mM DTT, 0.1% Triton X-100, 5 mg BSA for blocking; 4°C, 30 min; three washes; SDS-PAGE, Coomassie staining. The settings on record: both partners purified.

Residue numbers refer to the chain shown, from its start.

B1: GST-RIN4 T166A (natural protein)
chain: MARSNVPKFGNWEAEENVPYTAYFDKARKTRAPGSKIMNPNDPEYNSDSQSQAPPHPPSSRTKPEQVDTVRRSREHMRSREESELKQFGDAGGSSNEAANKRQGRASQNNSYDNKSPLHKNSYDGTGKSRPKPTNLRADESPEKVTVVPKFGDWDENNPSSADGYAHIFNKVREERSSGANVSGSSRTPTHQSSRNPNNTSSCCCFGFGGK
notes: source: E. coli BL21 (DE3), purified (Ni2+-NTA)
For the molecule B1, the binding result is given as “binds”.

B2: GST-RIN4 T166E (natural protein)
chain: B1 chain with A166E
notes: as for B1
As to B2, the binding result is “binds”.
